Test results published in IntAct's records for PubMed 20427285.

B1: Protein Z-dependent protease inhibitor (Homo sapiens), Q9UK55 (parent)
chain: MKVVPSLLLSVLLAQVWLVPGLAPSPQSPETPAPQNQTSRVVQAPKEEEEDEQEASEEKASEEEKAWLMASRQQLAKETSNFGFSLLRKISMRHDGNMVFSPFGMSLAMTGLMLGATGPTETQIKRGLHLQALKPTKPGLLPSLFKGLRETLSRNLELGLTQGSFAFIHKDFDVKETFFNLSKRYFDTECVPMNFRNASQAKRLMNHYINKETRGKIPKLFDEINPETKLILVDYILFKGKWLTPFDPVFTEVDTFHLDKYKTIKVPMMYGAGKFASTFDKNFRCHVLKLPYQGNATMLVVLMEKMGDHLALEDYLTTDLVETWLRNMKTRNMEVFFPKFKLDQKYEMHELLRQMGIRRIFSPFADLSELSATGRNLQVSRVLQRTVIEVDERGTEAVAGILSEITAYSMPPVIKVDRPFHFMIYEETSGMLLFLGRVVNPTLL

Assays:
proz_human PROZ, P22891 [1] = variants of: B1; settings: with proz_human PROZ
proz_human PROZ, P22891 [2] = variants of: B1; settings: with proz_human PROZ; remark: listed apart in the source
fa10_human F10, P00742 = variants of: B1; settings: with fa10_human F10, P00742

proz_human PROZ, P22891, sequence (P22891 whole entry): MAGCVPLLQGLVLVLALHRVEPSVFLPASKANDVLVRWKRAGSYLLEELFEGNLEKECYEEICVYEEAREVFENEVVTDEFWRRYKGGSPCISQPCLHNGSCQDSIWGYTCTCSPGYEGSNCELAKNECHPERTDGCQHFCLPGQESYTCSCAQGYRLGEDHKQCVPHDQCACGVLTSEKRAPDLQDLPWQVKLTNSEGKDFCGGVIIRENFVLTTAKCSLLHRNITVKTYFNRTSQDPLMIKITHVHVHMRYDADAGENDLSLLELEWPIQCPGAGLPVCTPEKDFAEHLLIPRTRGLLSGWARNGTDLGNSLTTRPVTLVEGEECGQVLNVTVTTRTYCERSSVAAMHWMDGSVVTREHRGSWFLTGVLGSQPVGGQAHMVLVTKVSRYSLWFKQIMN

Variant | effect of a mutation on the interaction (proz_human PROZ, P22891 [1]) | effect of a mutation on the interaction (proz_human PROZ, P22891 [2]) | effect of a mutation on the interaction (fa10_human F10, P00742)
E334A | with no effect | – | with no effect
E334A;E404A | with no effect | – | with no effect
E404A | with no effect | – | with no effect
D95A;D259A;K260A;D314A | – | – | with no effect

Results, then the variant that gave them:

effect of a mutation on the interaction (proz_human PROZ, P22891 [1]) | effect of a mutation on the interaction (proz_human PROZ, P22891 [2]) | effect of a mutation on the interaction (fa10_human F10, P00742) | Variant
disrupting interaction strength | disrupting interaction strength | – | D95A;D259A;K260A;E404A
– | – | decreasing interaction strength | Y408R
